Assay results from PMC3420917, “A Combinatorial Amino Acid Code for RNA Recognition by Pentatricopeptide Repeat Proteins” (PLoS Genetics, 2012).
Positions count from the first letter of the chain named.

How the values were obtained:
rPPR10 wild-type = target: T1, rPPR10 wild-type (maize, UniProt B8Y6I0 96-786); assay: SV-AUC; 3 uM protein, 1.5 or 3 uM RNA; 1:1 monomer complex; EMSA: radiolabeled RNA 15 pM, protein 0, 5, 10, 20 nM; binding buffer and temperature by reference [12]; protein stock in 400 mM NaCl, 50 mM Tris-HCl pH 7.5, 5; conditions: protein: recombinant; tags: MBP fusion removed by TEV cleavage; single-stranded
T1 sequence: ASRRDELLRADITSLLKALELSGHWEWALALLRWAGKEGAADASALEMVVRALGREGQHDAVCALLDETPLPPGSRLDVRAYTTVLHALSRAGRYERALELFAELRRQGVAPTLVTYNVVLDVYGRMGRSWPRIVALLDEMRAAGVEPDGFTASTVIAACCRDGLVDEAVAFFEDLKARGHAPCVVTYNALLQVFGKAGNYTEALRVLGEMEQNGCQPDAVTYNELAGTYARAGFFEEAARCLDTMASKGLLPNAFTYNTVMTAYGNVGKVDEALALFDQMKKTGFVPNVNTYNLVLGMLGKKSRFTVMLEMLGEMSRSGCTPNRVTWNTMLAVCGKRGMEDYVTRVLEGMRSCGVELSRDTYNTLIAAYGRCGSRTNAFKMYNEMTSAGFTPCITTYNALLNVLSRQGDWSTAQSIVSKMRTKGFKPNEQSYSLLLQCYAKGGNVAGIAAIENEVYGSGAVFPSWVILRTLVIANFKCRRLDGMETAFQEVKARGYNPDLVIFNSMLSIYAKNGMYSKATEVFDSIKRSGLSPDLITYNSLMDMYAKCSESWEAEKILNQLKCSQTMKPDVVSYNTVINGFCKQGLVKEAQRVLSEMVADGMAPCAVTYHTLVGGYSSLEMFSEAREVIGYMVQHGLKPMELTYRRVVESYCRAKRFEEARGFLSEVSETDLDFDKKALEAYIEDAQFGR

PPR10 ND variant = target: T2, PPR10 ND variant (maize, UniProt B8Y6I0 96-786, N349D); assay: EMSA; EMSA: radiolabeled RNA 15 pM, protein 0, 5, 10, 20 nM; binding buffer and temperature by reference [12]; protein stock in 400 mM NaCl, 50 mM Tris-HCl pH 7.5, 5; conditions: protein: recombinant; tags: MBP fusion removed by TEV cleavage; label: radiolabeled; single-stranded
T2 sequence: T1 sequence with N254D

PPR10 NS variant = target: T3, PPR10 NS variant (maize, UniProt B8Y6I0 96-786, D314S;N349S); assay: as above; conditions: protein: recombinant; tags: MBP fusion removed by TEV cleavage; label: radiolabeled; single-stranded
T3 sequence: T1 sequence with D219S, N254S

PPR10 NN variant [1] = target: T4, PPR10 NN variant (maize, UniProt B8Y6I0 96-786, D314N); assay: EMSA; affinity similar to UU RNA; EMSA: radiolabeled RNA 15 pM, protein 0, 5, 10, 20 nM; binding buffer and temperature by reference [12]; protein stock in 400 mM NaCl, 50 mM Tris-HCl pH 7.5, 5; conditions: protein: recombinant; tags: MBP fusion removed by TEV cleavage; label: radiolabeled; single-stranded
T4 sequence: T1 sequence with D219N

PPR10 NN variant [2] = target: T4, PPR10 NN variant; assay: EMSA; affinity similar to CC RNA; EMSA: radiolabeled RNA 15 pM, protein 0, 5, 10, 20 nM; binding buffer and temperature by reference [12]; protein stock in 400 mM NaCl, 50 mM Tris-HCl pH 7.5, 5; conditions: protein: recombinant; tags: MBP fusion removed by TEV cleavage; label: radiolabeled; single-stranded

Binder	binding result (rPPR10 wild-type)	Kd (PPR10 ND variant) [nM]	Kd (PPR10 NS variant) [nM]	binding result (PPR10 NN variant [1])	binding result (PPR10 NN variant [2])
GUAUCCUUAACCAUUUC (ssRNA) [PPR10 17-nt minimal RNA ligand]	binds	–	–	–	–
GUACCCUUAACCAUUUC (ssRNA) [CC RNA]	–	17	9	binds	–
GUAUUCUUAACCAUUUC (ssRNA) [UU RNA]	–	~3	20	–	binds
